Results from article doi:10.1101/2025.01.21.634180.

Target: GIV (Gα-interacting vesicle-associated protein, also known as Girdin), endogenous (human (endogenous in THP1)) (UniProt Q3V6T2)
Chain of UniProt Q3V6T2 (Q3V6T2 whole entry): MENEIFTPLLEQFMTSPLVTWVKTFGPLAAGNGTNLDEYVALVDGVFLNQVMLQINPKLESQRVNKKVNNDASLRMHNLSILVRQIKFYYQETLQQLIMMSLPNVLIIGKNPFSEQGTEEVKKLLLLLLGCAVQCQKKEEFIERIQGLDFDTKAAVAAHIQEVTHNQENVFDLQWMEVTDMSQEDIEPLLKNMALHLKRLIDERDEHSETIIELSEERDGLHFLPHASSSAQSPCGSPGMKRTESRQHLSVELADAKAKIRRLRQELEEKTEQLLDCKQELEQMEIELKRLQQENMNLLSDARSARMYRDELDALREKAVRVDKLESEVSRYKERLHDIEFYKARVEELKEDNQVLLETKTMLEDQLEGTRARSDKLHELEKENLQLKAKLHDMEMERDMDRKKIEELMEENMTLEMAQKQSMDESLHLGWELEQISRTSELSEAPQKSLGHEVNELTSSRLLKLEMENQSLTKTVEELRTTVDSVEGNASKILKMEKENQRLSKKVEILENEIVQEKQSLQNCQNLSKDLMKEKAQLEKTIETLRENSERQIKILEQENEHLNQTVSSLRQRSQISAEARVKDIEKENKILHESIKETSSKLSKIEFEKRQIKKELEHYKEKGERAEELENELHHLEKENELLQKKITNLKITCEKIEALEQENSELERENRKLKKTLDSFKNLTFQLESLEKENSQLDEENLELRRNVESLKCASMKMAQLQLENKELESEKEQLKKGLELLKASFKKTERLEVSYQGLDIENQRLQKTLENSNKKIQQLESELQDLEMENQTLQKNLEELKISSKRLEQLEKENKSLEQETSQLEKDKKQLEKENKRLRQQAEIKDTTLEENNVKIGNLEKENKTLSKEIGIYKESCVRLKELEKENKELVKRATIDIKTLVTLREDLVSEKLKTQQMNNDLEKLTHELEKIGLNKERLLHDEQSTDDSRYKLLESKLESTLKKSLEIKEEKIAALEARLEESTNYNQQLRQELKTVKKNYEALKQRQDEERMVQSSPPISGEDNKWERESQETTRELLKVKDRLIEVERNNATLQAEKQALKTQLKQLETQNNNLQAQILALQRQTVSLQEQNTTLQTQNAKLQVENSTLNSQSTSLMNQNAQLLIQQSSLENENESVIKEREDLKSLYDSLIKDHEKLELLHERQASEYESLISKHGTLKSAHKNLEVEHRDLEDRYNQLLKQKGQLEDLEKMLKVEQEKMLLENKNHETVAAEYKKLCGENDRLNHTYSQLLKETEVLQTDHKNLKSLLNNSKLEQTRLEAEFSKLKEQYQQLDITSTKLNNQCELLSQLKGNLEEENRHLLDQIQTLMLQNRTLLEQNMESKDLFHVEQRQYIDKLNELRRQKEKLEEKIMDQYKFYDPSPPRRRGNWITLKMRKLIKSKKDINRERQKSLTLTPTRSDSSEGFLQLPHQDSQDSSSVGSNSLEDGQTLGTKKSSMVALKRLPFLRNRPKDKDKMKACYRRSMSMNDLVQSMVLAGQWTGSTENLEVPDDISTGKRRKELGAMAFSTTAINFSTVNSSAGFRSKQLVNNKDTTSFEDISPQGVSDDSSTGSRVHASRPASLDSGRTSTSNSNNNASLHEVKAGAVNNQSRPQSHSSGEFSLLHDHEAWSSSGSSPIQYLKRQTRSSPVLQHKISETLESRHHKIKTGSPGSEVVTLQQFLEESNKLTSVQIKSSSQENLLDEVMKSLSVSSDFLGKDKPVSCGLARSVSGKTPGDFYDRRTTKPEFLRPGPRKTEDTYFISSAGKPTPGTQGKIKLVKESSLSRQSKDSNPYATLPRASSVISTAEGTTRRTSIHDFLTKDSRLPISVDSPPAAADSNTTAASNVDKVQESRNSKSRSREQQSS

“HA-tagged NOD2–1007fs (from UniProt Q9HC29 1-1040) (natural protein)” was tested, and the suppression of LPS (100 ng/ml)-induced NFκB activation by MDP (10 μg/ml) pretreatment, luciferase reporter assay in HeLa cells transfected with NOD2-1007fs (% protection) was 20%.
